From patent publication US20150072922A1, “RNASE 7 ANTIMICROBIAL PEPTIDES” (THE RESEARCH INSTITUTE AT NATIONWIDE CHILDREN'S HOSPITAL, priority 2012, published 2015)
Entries after “also recorded” stand apart in the source; their conditions may differ. Marks after values point to notes of the source that are not given here. Primed or numbered codes have the meaning given here. No end group written: not given here. *: point of attachment. His tag″ = six-residue histidine tag (His-tag) at the NH2-terminus, N[C@@H](Cc1c[nH]cn1)C(=O)N[C@@H](Cc1c[nH]cn1)C(=O)N[C@@H](Cc1c[nH]cn1)C(=O)N[C@@H](Cc1c[nH]cn1)C(=O)N[C@@H](Cc1c[nH]cn1)C(=O)N[C@@H](Cc1c[nH]cn1)C(=O)*; His tag = six-residue histidine tag at the N-terminus, N[C@@H](Cc1c[nH]cn1)C(=O)N[C@@H](Cc1c[nH]cn1)C(=O)N[C@@H](Cc1c[nH]cn1)C(=O)N[C@@H](Cc1c[nH]cn1)C(=O)N[C@@H](Cc1c[nH]cn1)C(=O)N[C@@H](Cc1c[nH]cn1)C(=O)*

B1: F:46-128: recombinant C-terminal RNase 7 fragment, amino acids 46 to 128, N-terminal His tag (protein)
chain: EPFSSVAATCQTPKIACKNGDKNCHQSHGPVSLTMCKLTSGKYPNCRYKEKRQNKSYVVACKPPQKKDSQQFHLVPVHLDRVL
modifications: left off: small tags and cut ends
notes: recombinant C-terminal RNase 7 fragment, amino acids 46 to 128, N-terminal His tag
B2: F:56-128: recombinant C-terminal RNase 7 fragment, amino acids 56 to 128, N-terminal His tag (protein)
chain: QTPKIACKNGDKNCHQSHGPVSLTMCKLTSGKYPNCRYKEKRQNKSYVVACKPPQKKDSQQFHLVPVHLDRVL
modifications: left off: small tags and cut ends
notes: recombinant C-terminal RNase 7 fragment, amino acids 56 to 128, N-terminal His tag
B3: F:1-83: recombinant N-terminal RNase 7 fragment, amino acids 1 to 83 (SEQ ID NO: 4), N-terminal His tag (protein, listed as Homo sapiens)
chain: KPKGMTSSQWFKIQHMQPSPQACNSAMKNINKHTKRCKDLNTFLHEPFSSVAATCQTPKIACKNGDKNCHQSHGPVSLTMCKL
modifications: N-terminal His tag
B4: F:1-107: recombinant N-terminal RNase 7 fragment, amino acids 1 to 107 (SEQ ID NO: 6), N-terminal His tag (protein, listed as Homo sapiens)
chain: KPKGMTSSQWFKIQHMQPSPQACNSAMKNINKHTKRCKDLNTFLHEPFSSVAATCQTPKIACKNGDKNCHQSHGPVSLTMCKLTSGKYPNCRYKEKRQNKSYVVACK
modifications: N-terminal His tag
B5: F:30-128: recombinant C-terminal RNase 7 fragment, amino acids 30 to 128, N-terminal His tag (protein)
chain: INKHTKRCKDLNTFLHEPFSSVAATCQTPKIACKNGDKNCHQSHGPVSLTMCKLTSGKYPNCRYKEKRQNKSYVVACKPPQKKDSQQFHLVPVHLDRVL
modifications: left off: small tags and cut ends
notes: recombinant C-terminal RNase 7 fragment, amino acids 30 to 128, N-terminal His tag

Columns and labels:
[1] = system: Staphylococcus saprophyticus (ATCC 15305); test: Antimicrobial kill (microdilution) assay, MIC/MBC by CFU count; format: cell-based; details: for S. saprophyticus MIC: lowest concentration that inhibits the growth of 90% of the inoculation; for S. saprophyticus MIC / S. saprophyticus MBC: 3 hours, 0.1×PBS; for S. saprophyticus MBC: minimum bactericidal concentration; for antimicrobial activity against S. saprophyticus (in words): MIC/MBC based, mostly compared to full-length RNase 7
Experimental: (§1) The antimicrobial activity of RNase 7 and its fragments was estimated using a microdilution assay. Briefly, test bacteria (10^5) were incubated with several concentrations of RNase 7 and each fragment in 50 μl 0.1×PBS buffer for 3 hours in a 37° C. incubator. Each reaction was plated on the appropriate medium and grew overnight at 37° C. The antimicrobial activity was determined by the number of colony-forming units (CFUs) the following day. The minimum inhibition concentration (MIC) is defined as the lowest concentration that inhibits the growth of 90% of the inoculation and the minimum bactericidal concentration (MB C) is defined as the lowest concentration at which less than 99.99% of the initial inoculum is viable.
(§2) Antimicrobial activities of the recombinant peptides were estimated with a microdilution assay. Briefly, the test bacteria (10^4 CFUs) were incubated with various concentrations of RNase 7 and each fragment in 50 ul 0.1×PBS buffer for 3 hours at 37° C. After incubation on Agar plates overnight at 37° C., the number of colony-forming units (CFUs) at each peptide concentration was determined. Using untreated bacterial aliquots as baseline, the minimum inhibition concentration (MIC) was defined as the lowest concentration that inhibits the growth of 90% of the inoculation, and the minimum bactericidal concentration (MBC) was defined as the lowest concentration at which less than 99.99% of the initial inoculum is viable.

Escherichia coli (UTI89) = test: as above; format: cell-based; details: for E. coli MIC: lowest concentration that inhibits the growth of 90% of the inoculation; for E. coli MIC / E. coli MBC: 3 hours, 0.1×PBS; for E. coli MBC: minimum bactericidal concentration; for antimicrobial activity against E. coli (in words): MIC/MBC based, mostly compared to full-length RNase 7
Experimental: as §1, §2

[2] = system: Proteus mirabilis (ATCC 7002); test: as above; format: cell-based; details: for antimicrobial activity against P. mirabilis (in words): MIC/MBC based, mostly compared to full-length RNase 7; for P. mirabilis MIC: lowest concentration that inhibits the growth of 90% of the inoculation; for P. mirabilis MIC / P. mirabilis MBC: 3 hours, 0.1×PBS; for P. mirabilis MBC: minimum bactericidal concentration
Experimental: Uropathogenic Escherichia coli (UTI89) was grown in Luria broth (LB) medium and plated on LB-agar. Uropathogenic Staphylococcus saprophyticus (ATCC 15305) was grown in LB and plated on Trypticase Soy Agar with 5% sheep blood (Fisher Scientific, Pittsburgh, Pa., USA). Uropathogenic Proteus mirabilis (ATCC 7002) was grown in LB and plated on MacConkey II Agar (Fisher Scientific, Pittsburgh, Pa., USA). These organisms were chosen as the primary organisms that account for a majority of Gram-negative and Gram-positive urinary tract infections (UTI). Anti-RNase 7 antibody was generated in rabbit with recombinant human RNase 7 (Biomatik, Wilmington, Del., USA)
as §2

E. coli = test: Urinary condition functional assay (OD600 growth curves); format: cell-based, Escherichia coli; details: 2 μM peptide, 50, 150, 500 mM NaCl, OD600 for 10 hours, FIG. 4
Experimental: (§3) Because the urinary environment can have significant variation in salt concentration, ionic composition, and pH, an antimicrobial/bacteriostatic assay was performed to evaluate if pH, calcium, or ionic strength affects the activity of full-length RNase7 or its fragments. The highest activity fragment F:1-97 and lowest activity fragment F:72-128 for these experiments were chosen. Bacteria were inoculated in 1% peptone water and growth to log phase with OD600=0.5. Bacteria were diluted to 1:10 and 1 μl added to 100 μl of 1% peptone water with various pH, CaCl2 or NaCl concentrations that correspond to a physiologic range present in the urine in a 96-well flat bottom plate (Thermo Scientific, Nunc, Worcester, Mass.). To each well, 2 μM of RNase7 or its fragments were added.
(§4) Bacterial growth was monitored using an Absorbance microplate reader (BioTek Instruments, Winooski, Vt.) at a final volume of 110 μl. The turbidity of the culture was measured and recorded at t=0 and every 20 min thereafter for 10 hours using the absorbance at 600 nm (OD600). The values of OD600 values were plotted against times to generate growth curves.

Proteus mirabilis = test: as above; format: cell-based
Experimental: as §3, §4

S. saprophyticus = test: as above; format: cell-based, Staphylococcus saprophyticus
Experimental: as §3, §4

Row | Molecule | S. saprophyticus MIC [1] | S. saprophyticus MBC [1] | E. coli MIC (Escherichia coli (UTI89)) | E. coli MBC (Escherichia coli (UTI89)) | antimicrobial activity against P. mirabilis (in words) [2] | P. mirabilis MIC [2] | P. mirabilis MBC [2] | antimicrobial activity against E. coli (in words) (Escherichia coli (UTI89)) | activity on E. coli growth at various NaCl titers (E. coli) | activity on Proteus mirabilis growth at various NaCl titers (Proteus mirabilis; 2 μM peptide, 50, 150, 500 mM NaCl, OD600 for 10 hours, FIG. 10) | activity on Proteus mirabilis growth at various pH levels (Proteus mirabilis; 2 μM peptide, pH 5, 7, 9, OD600 for 10 hours, FIG. 9) | activity on S. saprophyticus growth at various NaCl titers (S. saprophyticus; 2 μM peptide, 50, 150, 500 mM NaCl, OD600 for 10 hours, FIG. 7) | activity on S. saprophyticus growth at various pH levels (S. saprophyticus; 2 μM peptide, pH 5, 7, 9, OD600 for 10 hours, FIG. 6) | antimicrobial activity against S. saprophyticus (in words) [1]
1 | F:1-45: recombinant N-terminal RNase 7 fragment, amino acids 1 to 45 (SEQ ID NO: 2), N-terminal His tag ({His tag″}-KPKGMTSSQWFKIQHMQPSPQACNSAMKNINKHTKRCKDLNTFLH; ends and bridges not checked; listed as Homo sapiens) | 0.13 µM | 0.5 µM | 0.49 µM | 0.98 µM | no activity at high concentrations | >7** uM | >7** uM |  |  |  |  |  |  | 
2 | F:72-128: recombinant C-terminal RNase 7 fragment, amino acids 72 to 128, N-terminal His tag ({His tag}-SHGPVSLTMCKLTSGKYPNCRYKEKRQNKSYVVACKPPQKKDSQQFHLVPVHLDRVL; ends and bridges not checked) | 3.5** uM | >7** uM | 3.5** uM | 7* uM |  | >3.5** uM | >3.5** uM | least activity | inhibitory effect of 500 mM NaCl against E. coli was diminished with the addition of F:72-128 | minimal activity against P. mirabilis at all NaCl concentrations | minimal activity with enhanced growth at pH 7 and 9 | minimal activity against S. saprophyticus at all NaCl concentrations | minimal activity with enhanced growth at pH 7 and 9; also recorded: grew better with the addition of F:72-128 at pH 7 and 9 | 
3 | F:84-128: recombinant C-terminal RNase 7 fragment, amino acids 84 to 128, N-terminal His tag ({His tag}-TSGKYPNCRYKEKRQNKSYVVACKPPQKKDSQQFHLVPVHLDRVL; cysteine pairing not given here) | 1.75 µM | 3.5* uM | 1.92** uM | >3.5** uM | poor antimicrobial function against all uropathogens | >3.5** uM | >3.5** uM | poor antimicrobial function against all uropathogens |  |  |  |  |  | poor antimicrobial function against all uropathogens
4 | B1 | 0.22 µM | 1.75* uM | 0.34 µM | .68 µM |  | 3.5 µM | >3.5** uM |  |  |  |  |  |  | MICs similar to full-length
5 | B2 | 0.22 µM | 1.75* uM | 0.83 µM | 1.65 µM |  | >7** uM | >7** uM |  |  |  |  |  |  | MICs similar to full-length
6 | B3 | 0.34 µM | 0.69 µM | 0.43 µM | 0.87 µM |  | .44 µM | .88 µM |  |  |  |  |  |  | 
7 | B4 | 0.49 µM | >1.96* uM | 0.57 µM | 0.57 µM |  | .44 µM | .44 µM |  |  |  |  |  |  | 
8 | B5 | 0.88* uM | .88 µM | 0.52 µM | 2.07 µM |  | >3.5** uM | >3.5** uM |  |  |  |  |  |  | 
